# Data as given in patent US20230257470A1 (published 2023).
# Changes are numbered by the printed parent chain.
# T1: human FcγRIIa type H (human, UniProt P12318 36-217)
# T1 construct: also called FcyRIIaH; FcγRIIa(H)
# T1 sequence: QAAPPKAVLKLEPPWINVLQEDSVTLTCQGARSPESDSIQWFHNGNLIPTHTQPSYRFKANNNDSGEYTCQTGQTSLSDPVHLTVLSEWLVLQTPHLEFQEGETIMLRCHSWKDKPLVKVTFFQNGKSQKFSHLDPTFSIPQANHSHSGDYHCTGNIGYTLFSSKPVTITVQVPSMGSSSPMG
# T2: human FcγRIIb (human, UniProt P31994 43-217, limits assumed)
# T2 construct: also called FcyRIfb; FcγIIB
# T2 sequence: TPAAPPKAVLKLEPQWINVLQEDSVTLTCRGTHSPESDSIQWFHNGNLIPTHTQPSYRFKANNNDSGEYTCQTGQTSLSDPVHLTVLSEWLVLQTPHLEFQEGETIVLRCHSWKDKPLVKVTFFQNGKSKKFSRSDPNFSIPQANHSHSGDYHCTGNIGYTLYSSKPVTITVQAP
# T3: human FcγRIIa type R (human, UniProt P12318 36-217)
# T3 construct: also called FcgRIIaR; FcγRIIa(R)
# T3 chain: T1 sequence with H133R
# T4: human FcγRIIa type H (human, UniProt P12318 36-217)
# T4 construct: also called FcgRIIaH; FcγRIIa(H)
# T4 sequence: T1 sequence
# T5: human FcγRIIb (human, UniProt P31994 43-217, limits assumed)
# T5 construct: also called FcgRIIb; FcγIIB
# T5 sequence: T2 sequence
# B1: IL6R-2B128/IL6R-L (antibody, human IgG1, name in EU numbering)
# heavy: QVQLQESGPGLVKPSETLSLTCAVSGHSISHDHAWSWVRQPPGEGLEWIGFISYSGITNYNPSLQGRVTISRDNSKNTLYLQMNSLRAEDTAVYYCARSLARTTAMDYWGEGTLVTVSSASTKGPSVFPLAPSSKSTSGGTAALGCLVKDYFPEPVTVSWNSGALTSGVHTFPAVLQSSGLYSLSSVVTVPSSSLGTQTYICNVNHKPSNTKVDKKVEPKSCDKTHTCPPCPAPELLGGDSVFLFPPKPKDTLMISRTPEVTCVVVDVSHEDPEVKFNWYVDGVEVHNAKTKPREEQDNSTYRVVSVLTVLHQDWLNGKEYKCKVSNKALPAPIEKTISKAKGQPREPQVYTLPPSRDELTKNQVSLTCLVKGFYPSDIAVEWESNGQPENNYKTTPPVLDSDGSFFLYSKLTVDKSRWQQGNVFSCSVMHEALHNHYTQESLSLSP
# light: DIQMTQSPSSLSASVGDRVTITCRASQDISSYLNWYQQKPGKAPKLLIYYTSRLHSGVPSRFSGSGSGTDFTFTISSLQPEDIATYYCQQGNTLPYTFGQGTKVEIK
# B2: IL6R-BP117/IL6R-L (antibody, human IgG1, name in EU numbering)
# heavy: B1 heavy with D298Y, K328D
# light: B1 light
# B3: IL6R-BP126/IL6R-L (antibody, human IgG1, name in EU numbering)
# heavy: B1 heavy with D298Y, K328L
# light: B1 light
# B4: IL6R-BP112/IL6R-L (antibody, human IgG1, name in EU numbering)
# heavy: B1 heavy with P273G, D298Y
# light: B1 light
# B5: IL6R-BP120/IL6R-L (antibody, human IgG1, name in EU numbering)
# heavy: B1 heavy with D298Y, K328E
# light: B1 light
# B6: IL6R-BP078/IL6R-L (antibody, human IgG1, name in EU numbering)
# heavy: B1 heavy with D298Y, A332M
# light: B1 light
# B7: IL6R-BP183/IL6R-L (antibody, human IgG1, name in EU numbering)
# heavy: B1 heavy with E235D, L236Y, P273G, D298Y, K328A, A332K
# light: B1 light
# notes: the list runs over r52 and r53; copies: 2 + 2
# B8: IL6R-BP149/IL6R-L (antibody, human IgG1, name in EU numbering)
# heavy: B1 heavy with E235D, L236Y, G239D, K328A, A332K
# light: B1 light
# notes: the list runs over r32 and r33; copies: 2 + 2
# B9: IL6R-BP145/IL6R-L (antibody, human IgG1, name in EU numbering)
# heavy: B1 heavy with L236Y, G239D, D298Y
# light: B1 light
# notes: copies: 2 + 2
# B10: IL6R-BP144/IL6R-L (antibody, human IgG1, name in EU numbering)
# heavy: B1 heavy with G239D, D298Y, K328A
# light: B1 light
# notes: copies: 2 + 2
# B11: IL6R-BP177/IL6R-L (antibody, human IgG1, name in EU numbering)
# heavy: B1 heavy with E235D, L236Y, G239D, P273G, D298Y, K328D, A332K
# light: B1 light
# notes: the list runs over r41 and r42; copies: 2 + 2
# B12: IL6R-BP150/IL6R-L (antibody, human IgG1, name in EU numbering)
# heavy: B1 heavy with L236Y, G239D, D298Y, K328A, A332R
# light: B1 light
# notes: the list runs over r34 and r35; copies: 2 + 2
# B13: IL6R-G1d/IL6R-L (antibody, human IgG1)
# heavy: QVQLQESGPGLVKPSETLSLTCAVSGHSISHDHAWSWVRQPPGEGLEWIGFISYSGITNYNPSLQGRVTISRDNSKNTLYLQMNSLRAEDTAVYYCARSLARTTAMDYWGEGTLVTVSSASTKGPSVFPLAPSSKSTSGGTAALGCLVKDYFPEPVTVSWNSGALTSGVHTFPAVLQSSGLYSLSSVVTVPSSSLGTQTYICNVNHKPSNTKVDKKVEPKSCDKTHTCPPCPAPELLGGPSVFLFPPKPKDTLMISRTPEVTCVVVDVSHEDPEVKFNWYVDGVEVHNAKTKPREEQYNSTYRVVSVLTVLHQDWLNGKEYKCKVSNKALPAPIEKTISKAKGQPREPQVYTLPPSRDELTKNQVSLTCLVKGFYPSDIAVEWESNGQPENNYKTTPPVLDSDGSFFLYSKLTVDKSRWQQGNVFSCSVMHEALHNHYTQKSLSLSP
# light: B1 light
# notes: Anti-human IL-6 receptor human IgG1 with G1d constant region (C-terminal Gly and Lys removed); template used for producing IL6R-B3; also called IgG1; copies: 2 + 2
# B14: IL6R-BP180/IL6R-L (antibody, human IgG1, name in EU numbering)
# heavy: B1 heavy with G239D, P273G, D298Y, A332K
# light: B1 light
# notes: copies: 2 + 2
# B15: IL6R-BP143/IL6R-L (antibody, human IgG1, name in EU numbering)
# heavy: B1 heavy with L236Y, D298Y, K328A
# light: B1 light
# notes: copies: 2 + 2
# B16: IL6R-BP129/IL6R-L (antibody, human IgG1, name in EU numbering)
# heavy: B1 heavy with E235D, A332K
# light: B1 light
# notes: copies: 2 + 2
# B17: IL6R-BP179/IL6R-L (antibody, human IgG1, name in EU numbering)
# heavy: B1 heavy with G239D, P273G, D298Y, K328A, A332K
# light: B1 light
# notes: the list runs over r45 and r46; copies: 2 + 2
# B18: IL6R-BP133/IL6R-L (antibody, human IgG1, name in EU numbering)
# heavy: B1 heavy with E235D, L236Y, D298Y, A332K
# light: B1 light
# notes: copies: 2 + 2
# B19: IL6R-BP147/IL6R-L (antibody, human IgG1, name in EU numbering)
# heavy: B1 heavy with L236Y, G239D, D298Y, K328A, A332K
# light: B1 light
# notes: the list runs over r28 and r29; copies: 2 + 2
# Target: T6, human FcγRIa (human, UniProt P12314 16-292, limits assumed)
# T6 construct: also called FcyRIa; CD64
# Assay: SPR (Biacore), FcγR over captured antibody; binding amount relative to IL6R-BF648/IL6R-L x100
# T6 sequence (P12314 16-292 limits assumed): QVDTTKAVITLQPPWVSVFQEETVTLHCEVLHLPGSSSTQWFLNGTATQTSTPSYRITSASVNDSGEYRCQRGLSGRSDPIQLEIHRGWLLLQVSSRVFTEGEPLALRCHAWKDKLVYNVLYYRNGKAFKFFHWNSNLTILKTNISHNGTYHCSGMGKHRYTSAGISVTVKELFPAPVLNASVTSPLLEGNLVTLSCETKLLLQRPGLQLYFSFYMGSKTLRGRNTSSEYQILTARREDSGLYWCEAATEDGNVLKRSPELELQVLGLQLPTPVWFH
row,relative binding,Binder
1,95 % of IL6R-BF648/IL6R-L,B1
2,124 % of IL6R-BF648/IL6R-L,B2
3,113 % of IL6R-BF648/IL6R-L,B3
4,119 % of IL6R-BF648/IL6R-L,B4
5,125 % of IL6R-BF648/IL6R-L,B5
6,106 % of IL6R-BF648/IL6R-L,B6

# Target: T1, human FcγRIIa type H
# Assay: as above
row,relative binding,Binder
1,37 % of IL6R-BF648/IL6R-L,B1
2,96 % of IL6R-BF648/IL6R-L,B2
3,132 % of IL6R-BF648/IL6R-L,B3
4,113 % of IL6R-BF648/IL6R-L,B4
5,89 % of IL6R-BF648/IL6R-L,B6

# Target: T2, human FcγRIIb
# Assay: as above
row,relative binding,Binder
1,118 % of IL6R-BF648/IL6R-L,B2
2,157 % of IL6R-BF648/IL6R-L,B4
3,114 % of IL6R-BF648/IL6R-L,B5

# Target: T7, human FcγRIIIa type V (human, UniProt P08637 17-208, limits assumed)
# T7 construct: also called FcyRIIIa; FcγRIIIaV
# Assay: as above
# T7 sequence (P08637 other isoform, or with tags, fused parts or gaps limits assumed): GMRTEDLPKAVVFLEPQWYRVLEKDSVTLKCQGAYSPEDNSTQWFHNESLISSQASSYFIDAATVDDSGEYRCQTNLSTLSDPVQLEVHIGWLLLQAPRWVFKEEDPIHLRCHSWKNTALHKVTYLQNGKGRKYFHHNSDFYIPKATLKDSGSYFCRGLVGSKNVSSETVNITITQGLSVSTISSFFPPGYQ
row,relative binding,Binder
1,96 % of IL6R-BF648/IL6R-L,B1
2,91 % of IL6R-BF648/IL6R-L,B6

# Target: T8, human FcγRIa (human, UniProt P12314 16-292, limits assumed)
# T8 construct: also called FcgRIa; FcγRI (CD64)
# Assay: SPR (Biacore), FcγR over captured antibody; binding amount divided by that of IL6R-BF648/IL6R-L x 100
# T8 sequence (P12314 16-292 limits assumed): as the sequence (P12314 16-292 limits assumed) above
# Procedure: (§1) According to the following method, relative binding activities were calculated for the results of analyzing interactions with the respective FcγRs.
row,relative binding activity,Binder
1,83 relative (IL6R-BF648/IL6R-L = 100),B7
2,29 relative (IL6R-BF648/IL6R-L = 100),B8
3,41 relative (IL6R-BF648/IL6R-L = 100),B9
4,64 relative (IL6R-BF648/IL6R-L = 100),B10
5,57 relative (IL6R-BF648/IL6R-L = 100),B11
6,30 relative (IL6R-BF648/IL6R-L = 100),B12
7,140 relative (IL6R-BF648/IL6R-L = 100),B13
8,29 relative (IL6R-BF648/IL6R-L = 100),B14
9,86 relative (IL6R-BF648/IL6R-L = 100),B15
10,68 relative (IL6R-BF648/IL6R-L = 100),B16
11,39 relative (IL6R-BF648/IL6R-L = 100),B17
12,41 relative (IL6R-BF648/IL6R-L = 100),B18
13,24 relative (IL6R-BF648/IL6R-L = 100),B19

# Target: T3, human FcγRIIa type R
# Assay: as above
# Procedure: as §1
row,relative binding activity,Binder
1,423 relative (IL6R-BF648/IL6R-L = 100),B7
2,539 relative (IL6R-BF648/IL6R-L = 100),B8
3,350 relative (IL6R-BF648/IL6R-L = 100),B9
4,204 relative (IL6R-BF648/IL6R-L = 100),B10
5,691 relative (IL6R-BF648/IL6R-L = 100),B11
6,757 relative (IL6R-BF648/IL6R-L = 100),B12
7,650 relative (IL6R-BF648/IL6R-L = 100),B13
8,602 relative (IL6R-BF648/IL6R-L = 100),B14
9,238 relative (IL6R-BF648/IL6R-L = 100),B15
10,111 relative (IL6R-BF648/IL6R-L = 100),B16
11,570 relative (IL6R-BF648/IL6R-L = 100),B17
12,174 relative (IL6R-BF648/IL6R-L = 100),B18
13,650 relative (IL6R-BF648/IL6R-L = 100),B19

# Target: T4, human FcγRIIa type H
# Assay: as above
# Procedure: as §1
row,relative binding activity,Binder
1,191 relative (IL6R-BF648/IL6R-L = 100),B7
2,401 relative (IL6R-BF648/IL6R-L = 100),B8
3,224 relative (IL6R-BF648/IL6R-L = 100),B9
4,108 relative (IL6R-BF648/IL6R-L = 100),B10
5,409 relative (IL6R-BF648/IL6R-L = 100),B11
6,770 relative (IL6R-BF648/IL6R-L = 100),B12
7,1670 relative (IL6R-BF648/IL6R-L = 100),B13
8,203 relative (IL6R-BF648/IL6R-L = 100),B14
9,143 relative (IL6R-BF648/IL6R-L = 100),B15
10,98 relative (IL6R-BF648/IL6R-L = 100),B16
11,226 relative (IL6R-BF648/IL6R-L = 100),B17
12,151 relative (IL6R-BF648/IL6R-L = 100),B18
13,582 relative (IL6R-BF648/IL6R-L = 100),B19

# Target: T5, human FcγRIIb
# Assay: as above
# Procedure: as §1
row,relative binding activity,Binder
1,164 relative (IL6R-BF648/IL6R-L = 100),B7
2,173 relative (IL6R-BF648/IL6R-L = 100),B8
3,152 relative (IL6R-BF648/IL6R-L = 100),B9
4,121 relative (IL6R-BF648/IL6R-L = 100),B10
5,177 relative (IL6R-BF648/IL6R-L = 100),B11
6,183 relative (IL6R-BF648/IL6R-L = 100),B12
7,62 relative (IL6R-BF648/IL6R-L = 100),B13
8,179 relative (IL6R-BF648/IL6R-L = 100),B14
9,133 relative (IL6R-BF648/IL6R-L = 100),B15
10,138 relative (IL6R-BF648/IL6R-L = 100),B16
11,177 relative (IL6R-BF648/IL6R-L = 100),B17
12,137 relative (IL6R-BF648/IL6R-L = 100),B18
13,177 relative (IL6R-BF648/IL6R-L = 100),B19

# Target: T9, human FcγRIIIa type V (human, UniProt P08637 17-208, limits assumed)
# T9 construct: also called FcgRIIIaV; FcγRIIIa(V)
# Assay: as above
# T9 sequence (P08637 other isoform, or with tags, fused parts or gaps limits assumed): as the sequence (P08637 other isoform, or with tags, fused parts or gaps limits assumed) above
# Procedure: as §1
row,relative binding activity,Binder
1,113 relative (IL6R-BF648/IL6R-L = 100),B7
2,186 relative (IL6R-BF648/IL6R-L = 100),B8
3,153 relative (IL6R-BF648/IL6R-L = 100),B9
4,128 relative (IL6R-BF648/IL6R-L = 100),B10
5,186 relative (IL6R-BF648/IL6R-L = 100),B11
6,204 relative (IL6R-BF648/IL6R-L = 100),B12
7,3350 relative (IL6R-BF648/IL6R-L = 100),B13
8,100 relative (IL6R-BF648/IL6R-L = 100),B14
9,114 relative (IL6R-BF648/IL6R-L = 100),B15
10,95 relative (IL6R-BF648/IL6R-L = 100),B16
11,125 relative (IL6R-BF648/IL6R-L = 100),B17
12,114 relative (IL6R-BF648/IL6R-L = 100),B18
13,209 relative (IL6R-BF648/IL6R-L = 100),B19
